Drawing on paper PMC5846730, this text covers average apparent KD of the Val19-Glu30 and Ala49-Arg60 regions for one substance.

In this test the target is GbnD4 DHD domain (Burkholderia gladioli BCC0238). Description: NMR titration.

With “GbnD5 apo-DH-ACP di-domain (domain or fragment)”, the average apparent KD of the Val19-Glu30 and Ala49-Arg60 regions lay within 7 to 15 µM.
